# Test results taken from US20210087281A1 (AGOMAB THERAPEUTICS, published 2021).
# Tests used:
# [1] = target: T1, native human MET on living cells (human, UniProt P08581 25-1390); assay: cell-based or functional assay
# [2] = target: T2, native mouse MET on living cells (mouse, UniProt P16056 25-1379); assay: cell-based or functional assay
# [3] = target: T1, native human MET on living cells; assay: cell-based or functional assay; remark: listed apart in the source
# [4] = target: T2, native mouse MET on living cells; assay: cell-based or functional assay; remark: listed apart in the source
# [5] = target: T1, native human MET on living cells; assay: cell-based or functional assay; remark: listed apart in the source
# [6] = target: T2, native mouse MET on living cells; assay: cell-based or functional assay; remark: listed apart in the source
# [7] = target: T1, native human MET on living cells; assay: cell-based or functional assay; remark: listed apart in the source
# [8] = target: T2, native mouse MET on living cells; assay: cell-based or functional assay; remark: listed apart in the source
# [9] = target: T1, native human MET on living cells; assay: flow cytometry, A549 cells
# Experimental: (§1) We also analysed whether chimeric anti-MET antibodies bound to native human and mouse MET in living cells. […] Antibody binding to cells was analysed by flow cytometry using phycoerythrin-conjugated anti-human IgG1 antibodies (eBioscience) and a CyAn ADP analyser (Beckman Coulter). As a positive control for human MET binding, we used a commercial mouse anti-human MET antibody (R&D Systems) and phycoerythrin-conjugated anti-mouse IgG1 antibodies (eBioscience).
# (§2) As a positive control for mouse MET binding we used a commercial goat anti-mouse MET antibody (R&D Systems) and phycoerythrin-conjugated anti-goat IgG1 antibodies (eBioscience). […] Consistent with the data obtained in ELISA, maximal binding (EMAX) varied depending on antibody, but was similar in human and mouse cells.
# [10] = target: T2, native mouse MET on living cells; assay: flow cytometry, MLP29 cells
# Experimental: as §1, §2
# human MET ECD = target: T3, human MET ECD (human, UniProt P08581 25-932); assay: ELISA, MET ECD in solid phase, mAb 0-20 nM
# T3 construct: range 1-932; recombinant ECD made by the applicants; the stated range begins at residue 1, so it includes the signal peptide of the entry; also called hMET; hMET ECD
# Experimental: (§3) Production (by transient transfection of mammalian cells) and purification (by protein A affinity chromatography) of the resulting chimeric llama-human IgG1 molecules was outsourced to U-protein Express. Binding of chimeric mAbs to MET was determined by ELISA using hMET or mMET ECD in solid phase and increasing concentrations of antibodies (0-20 nM) in solution. […] Binding capacity (EMAX) varied from antibody to antibody, possibly due to partial epitope exposure in the immobilized antigen, but was similar in the human and mouse setting.
# mouse MET ECD = target: T4, mouse MET ECD (mouse, UniProt P16056 25-931); assay: ELISA, MET ECD in solid phase, mAb 0-20 nM
# T4 construct: range 1-931; recombinant ECD made by the applicants; the stated range begins at residue 1; also called mMET; mMET ECD
# Experimental: as §3
# [11] = target: T5, human MET-Fc (R&D Systems) (human, UniProt P08581 25-932); assay: competition ELISA, hMET-Fc in solid phase, competitor 0.3 nM biotinylated hHGF
# T5 construct: extracellular domain; bought chimeric protein; also called hMET; not shown: Fc portion of human IgG1
# Experimental: (§4) To investigate along this line, we tested the competition between mAbs and HGF by ELISA. Recombinant human and mouse HGF (R&D Systems) were biotinylated at the N-terminus using NHS-LC-biotin (Thermo Scientific). MET-Fc protein, either human or mouse (R&D Systems), was immobilized in solid phase and then exposed to 0.3 nM biotinylated HGF, either human or mouse, in the presence of increasing concentrations of antibodies (0-120 nM).
# (§5) A MET-Fc chimeric protein (either human or mouse) was immobilized in solid phase and exposed to a fixed concentration of biotinylated HGF (either human or mouse), in the presence of increasing concentrations of antibodies. […] Antibody-HGF competition is expressed as IC₅₀ (the concentration that achieves 50% competition) and IMAX (the maximum % competition reached at saturation).
# [12] = target: T6, mouse MET-Fc (R&D Systems) (mouse, UniProt P16056 25-929, limits assumed); assay: competition ELISA, mMET-Fc in solid phase, competitor 0.3 nM biotinylated mHGF
# T6 construct: bought chimeric protein; also called mMET; not shown: Fc part
# Experimental: as §4, §5
# T1 sequence (P08581 25-1390): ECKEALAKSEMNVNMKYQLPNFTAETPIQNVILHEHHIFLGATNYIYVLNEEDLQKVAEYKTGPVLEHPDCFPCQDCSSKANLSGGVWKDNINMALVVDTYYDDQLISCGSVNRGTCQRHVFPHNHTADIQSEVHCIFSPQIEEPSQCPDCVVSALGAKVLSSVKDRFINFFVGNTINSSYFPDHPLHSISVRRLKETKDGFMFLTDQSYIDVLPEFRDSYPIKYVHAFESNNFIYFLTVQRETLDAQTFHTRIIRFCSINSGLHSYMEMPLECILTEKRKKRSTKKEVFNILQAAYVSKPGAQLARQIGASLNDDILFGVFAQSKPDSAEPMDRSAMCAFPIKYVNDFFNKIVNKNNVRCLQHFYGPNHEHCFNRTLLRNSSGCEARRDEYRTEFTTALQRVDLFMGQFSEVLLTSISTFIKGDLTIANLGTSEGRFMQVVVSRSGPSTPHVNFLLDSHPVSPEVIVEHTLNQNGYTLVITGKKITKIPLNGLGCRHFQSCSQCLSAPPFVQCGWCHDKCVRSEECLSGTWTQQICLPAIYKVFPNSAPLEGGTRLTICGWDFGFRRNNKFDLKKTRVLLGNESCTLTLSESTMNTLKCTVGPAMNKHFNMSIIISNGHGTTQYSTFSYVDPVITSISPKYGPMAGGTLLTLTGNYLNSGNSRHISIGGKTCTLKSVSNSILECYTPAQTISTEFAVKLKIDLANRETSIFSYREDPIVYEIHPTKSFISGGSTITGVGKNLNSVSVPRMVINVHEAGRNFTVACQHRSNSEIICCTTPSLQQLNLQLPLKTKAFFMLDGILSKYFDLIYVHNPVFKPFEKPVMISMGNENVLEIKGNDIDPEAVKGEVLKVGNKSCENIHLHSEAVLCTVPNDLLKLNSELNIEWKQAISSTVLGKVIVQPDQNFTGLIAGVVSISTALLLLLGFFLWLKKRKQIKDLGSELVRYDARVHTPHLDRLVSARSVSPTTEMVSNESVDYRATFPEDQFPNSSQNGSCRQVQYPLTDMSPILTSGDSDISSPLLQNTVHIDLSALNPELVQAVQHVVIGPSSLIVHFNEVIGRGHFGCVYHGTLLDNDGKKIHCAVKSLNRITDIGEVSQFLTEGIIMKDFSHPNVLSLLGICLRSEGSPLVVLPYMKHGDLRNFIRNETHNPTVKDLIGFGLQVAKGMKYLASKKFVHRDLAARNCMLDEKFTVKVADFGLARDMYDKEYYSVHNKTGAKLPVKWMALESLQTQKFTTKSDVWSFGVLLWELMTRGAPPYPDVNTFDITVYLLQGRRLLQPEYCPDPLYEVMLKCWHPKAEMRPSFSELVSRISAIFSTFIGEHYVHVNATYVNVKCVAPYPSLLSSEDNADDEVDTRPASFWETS
# T5 sequence (P08581 25-932): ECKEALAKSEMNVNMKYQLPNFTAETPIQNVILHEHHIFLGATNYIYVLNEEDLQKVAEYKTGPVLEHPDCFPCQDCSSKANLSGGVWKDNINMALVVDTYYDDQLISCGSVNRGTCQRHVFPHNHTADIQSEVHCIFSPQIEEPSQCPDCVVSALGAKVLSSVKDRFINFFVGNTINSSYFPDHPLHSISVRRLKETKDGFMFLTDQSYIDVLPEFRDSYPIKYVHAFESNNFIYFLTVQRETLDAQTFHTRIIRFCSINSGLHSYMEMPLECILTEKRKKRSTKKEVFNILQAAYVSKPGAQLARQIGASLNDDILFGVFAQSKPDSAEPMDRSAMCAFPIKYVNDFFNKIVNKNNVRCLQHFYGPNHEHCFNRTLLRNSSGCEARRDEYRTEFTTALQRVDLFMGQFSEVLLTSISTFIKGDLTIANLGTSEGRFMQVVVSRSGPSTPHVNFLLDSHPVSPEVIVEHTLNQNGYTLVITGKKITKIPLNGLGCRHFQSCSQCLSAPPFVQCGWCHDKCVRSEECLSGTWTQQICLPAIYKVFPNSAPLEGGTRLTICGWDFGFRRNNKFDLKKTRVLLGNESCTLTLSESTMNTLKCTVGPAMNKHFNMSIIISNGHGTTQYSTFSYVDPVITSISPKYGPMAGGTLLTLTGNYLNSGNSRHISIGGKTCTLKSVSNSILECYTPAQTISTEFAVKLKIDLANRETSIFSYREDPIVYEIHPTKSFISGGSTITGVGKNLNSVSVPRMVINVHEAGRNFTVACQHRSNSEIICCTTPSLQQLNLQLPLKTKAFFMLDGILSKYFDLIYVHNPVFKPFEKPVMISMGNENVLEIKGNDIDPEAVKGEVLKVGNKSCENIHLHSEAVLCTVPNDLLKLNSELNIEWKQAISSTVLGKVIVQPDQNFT
# T3 sequence (P08581 25-932 limits assumed, form in doubt): as the sequence (P08581 25-932) above
binder,measurement,setting,value
"71G12 chimeric llama-human IgG1 mAb (antibody, V domains shown, llama VH on human IgG1 CH1-CH2-CH3, llama VL on human kappa CL) VH: QVQLQESGGDLVQPGGSLRVSCVVSGFTFSRYYMSWVRQAPGKGLEWVSSIDSYGYSTYYTDSVKGRFTISRDNAKNTLYLQMNSLKPEDTALYYCARAKTTWSYDYWGQGTQVTVSS VL: EIVLTQSPSSVTASVGGKVTINCKSSQSVFIASNQKTYLNWYQQRPGQSPRLVISYASTRESGIPDRFSGSGSTTDFTLTISSVQPEDAAVYYCQQAYSHPTFGQGTKVELK","phospho-MET ELISA EC50, A549 cells",[1],2.48 nM
same,"phospho-MET ELISA EMAX (% HGF activity), A549 cells",[1],70.6%
same,"phospho-MET ELISA EC50, MLP29 cells",[2],2.01 nM
same,"phospho-MET ELISA EMAX (% HGF activity), MLP29 cells",[2],75.4%
same,"scatter score 0-4, HPAF-II, 0.001 nM",[3],0 score
same,"scatter score 0-4, HPAF-II, 0.004 nM",[3],0 score
same,"scatter score 0-4, HPAF-II, 0.012 nM",[3],0 score
same,"scatter score 0-4, HPAF-II, 0.037 nM",[3],0 score
same,"scatter score 0-4, HPAF-II, 0.111 nM",[3],0 score
same,"scatter score 0-4, HPAF-II, 0.333 nM",[3],1 score
same,"scatter score 0-4, HPAF-II, 1.000 nM",[3],2 score
same,"scatter score 0-4, HPAF-II, 3.000 nM",[3],2 score
same,"scatter score 0-4, HPAF-II, 9.000 nM",[3],3 score
same,"scatter score 0-4, MLP29, 0.001 nM",[4],0 score
same,"scatter score 0-4, MLP29, 0.004 nM",[4],0 score
same,"scatter score 0-4, MLP29, 0.012 nM",[4],0 score
same,"scatter score 0-4, MLP29, 0.037 nM",[4],0 score
same,"scatter score 0-4, MLP29, 0.111 nM",[4],0 score
same,"scatter score 0-4, MLP29, 0.333 nM",[4],1 score
same,"scatter score 0-4, MLP29, 1.000 nM",[4],2 score
same,"scatter score 0-4, MLP29, 3.000 nM",[4],2 score
same,"scatter score 0-4, MLP29, 9.000 nM",[4],3 score
same,"protection from staurosporine, viability EC50, MCF10A cells",[5],> 32 nM
same,"protection from staurosporine, viability EMAX, MCF10A cells",[5],39.4%
same,"protection from staurosporine, viability EC50, MLP29 cells",[6],> 32 nM
same,"protection from staurosporine, viability EMAX, MLP29 cells",[6],39.7%
same,"branches per spheroid, LOC cells, 0.5 nM",[7],7 branches
same,"branches per spheroid, LOC cells, 2.5 nM",[7],15.3 branches
same,"branches per spheroid, LOC cells, 12.5 nM",[7],16 branches
same,"branches per spheroid, MLP29 cells, 0.5 nM",[8],14 branches
same,"branches per spheroid, MLP29 cells, 2.5 nM",[8],14.7 branches
same,"branches per spheroid, MLP29 cells, 12.5 nM",[8],22.7 branches
same,EC50,[9],2.29 nM
same,EMAX,[9],110 % relative to control
same,EC50,[10],2.54 nM
same,EMAX,[10],121 % relative to control
same,EC50,human MET ECD,0.106 nM
same,EMAX (OD450),human MET ECD,3.08 AU
same,EC50,mouse MET ECD,0.127 nM
same,EMAX (OD450),mouse MET ECD,2.97 AU
same,IC50,[11],3.87 nM
same,IMAX,[11],51.4%
same,IC50,[12],4.05 nM
same,IMAX,[12],50.7%
"74C8 chimeric llama-human IgG1 mAb (antibody, V domains shown, llama VH on human IgG1 CH1-CH2-CH3, llama VL on human lambda CL) VH: EVQLVESGGGLVQPGGSLRLSCAASGFTFRNYHMSWVRQVPGKGFEWISDINSAGGSTYYADSVKGRFTISRDNAKNTLYLEMNSLKPEDTALYYCARVNVWGVNYWGKGTLVSVSS VL: QTVVTQEPSLSVSPGGTVTLTCGLSSGSVTTSNYPGWFQQTPGQAPRTLIYNTNSRHSGVPSRFSGSISGNKAALTITGAQPEDEADYYCSLYPGSYTNVFGGGTHLTVL","phospho-MET ELISA EC50, A549 cells",[1],0.52 nM
same,"phospho-MET ELISA EMAX (% HGF activity), A549 cells",[1],87.6%
same,"phospho-MET ELISA EC50, MLP29 cells",[2],0.41 nM
same,"phospho-MET ELISA EMAX (% HGF activity), MLP29 cells",[2],102%
same,"scatter score 0-4, HPAF-II, 0.001 nM",[3],0 score
same,"scatter score 0-4, HPAF-II, 0.004 nM",[3],0 score
same,"scatter score 0-4, HPAF-II, 0.012 nM",[3],0 score
same,"scatter score 0-4, HPAF-II, 0.037 nM",[3],1 score
same,"scatter score 0-4, HPAF-II, 0.111 nM",[3],2 score
same,"scatter score 0-4, HPAF-II, 0.333 nM",[3],3 score
same,"scatter score 0-4, HPAF-II, 1.000 nM",[3],3 score
same,"scatter score 0-4, HPAF-II, 3.000 nM",[3],4 score
same,"scatter score 0-4, HPAF-II, 9.000 nM",[3],4 score
same,"scatter score 0-4, MLP29, 0.001 nM",[4],0 score
same,"scatter score 0-4, MLP29, 0.004 nM",[4],0 score
same,"scatter score 0-4, MLP29, 0.012 nM",[4],0 score
same,"scatter score 0-4, MLP29, 0.037 nM",[4],1 score
same,"scatter score 0-4, MLP29, 0.111 nM",[4],2 score
same,"scatter score 0-4, MLP29, 0.333 nM",[4],3 score
same,"scatter score 0-4, MLP29, 1.000 nM",[4],3 score
same,"scatter score 0-4, MLP29, 3.000 nM",[4],4 score
same,"scatter score 0-4, MLP29, 9.000 nM",[4],4 score
same,"protection from staurosporine, viability EC50, MCF10A cells",[5],> 32 nM
same,"protection from staurosporine, viability EMAX, MCF10A cells",[5],41.7%
same,"protection from staurosporine, viability EC50, MLP29 cells",[6],> 32 nM
same,"protection from staurosporine, viability EMAX, MLP29 cells",[6],37.5%
same,"branches per spheroid, LOC cells, 0.5 nM",[7],10.3 branches
same,"branches per spheroid, LOC cells, 2.5 nM",[7],17 branches
same,"branches per spheroid, LOC cells, 12.5 nM",[7],18.7 branches
same,"branches per spheroid, MLP29 cells, 0.5 nM",[8],17.3 branches
same,"branches per spheroid, MLP29 cells, 2.5 nM",[8],15.3 branches
same,"branches per spheroid, MLP29 cells, 12.5 nM",[8],22.3 branches
same,EC50,[9],0.235 nM
same,EMAX,[9],85.7 % relative to control
same,EC50,[10],0.208 nM
same,EMAX,[10],73.8 % relative to control
same,EC50,human MET ECD,0.09 nM
same,EMAX (OD450),human MET ECD,0.994 AU
same,EC50,mouse MET ECD,0.116 nM
same,EMAX (OD450),mouse MET ECD,0.896 AU
same,IC50,[11],0.43 nM
same,IMAX,[11],76.9%
same,IC50,[12],0.49 nM
same,IMAX,[12],71.5%
